Positions count from the first letter of the chain named. Read-outs that look alike come from different tables or passages of the source.
Tests used:
Test in all cases: fluorescence polarisation
[1] = biological target: T1, wild type Rb pocket domain (Rb^P) (human, UniProt P06400 380-788)
T1 sequence: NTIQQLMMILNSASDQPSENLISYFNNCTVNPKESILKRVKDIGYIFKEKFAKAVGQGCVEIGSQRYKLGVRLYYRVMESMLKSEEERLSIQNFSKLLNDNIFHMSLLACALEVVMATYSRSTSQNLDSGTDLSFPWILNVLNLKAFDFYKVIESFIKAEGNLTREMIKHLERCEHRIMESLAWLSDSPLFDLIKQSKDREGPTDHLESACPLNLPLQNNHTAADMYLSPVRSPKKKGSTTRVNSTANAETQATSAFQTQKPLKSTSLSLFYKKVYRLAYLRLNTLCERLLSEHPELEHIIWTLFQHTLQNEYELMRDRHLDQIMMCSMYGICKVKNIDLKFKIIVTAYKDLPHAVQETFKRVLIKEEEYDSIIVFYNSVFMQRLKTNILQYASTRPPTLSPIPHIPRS

[2] = biological target: T2, Rb^P I703F (human, UniProt P06400 380-788, I703F)
T2 sequence: T1 sequence with I324F

[3] = biological target: T3, Rb^P M704V (human, UniProt P06400 380-788, M704V)
T3 sequence: T1 sequence with M325V

[4] = biological target: T4, Rb^P E554K (human, UniProt P06400 380-788, E554K)
T4 sequence: T1 sequence with E175K

[5] = biological target: T1, wild type Rb pocket domain (Rb^P); remark: listed apart in the source
[6] = biological target: T2, Rb^P I703F; remark: listed apart in the source

DLYCYEQLN (not fully specified; TMR fluorescent label (TMR-E7^LxCxE)) [TMR-E7^LxCxE (LxCxE peptide of the E7 oncoprotein from HPV, TMR-labeled)] was tested, and the Kd [1] was 7 nM, the Kd [2] was 53 nM and the Kd [3] was 14 nM. It also gave a Kd [4] of 24 nM, a Kd [5] of 5 nM and a Kd [6] of 16 nM.
